The results in this text go back to patent US20170101470A1 (PROTHENA BIOSCIENCES, published 2017).

Experiment [1] addresses T1, human MCAM-Fc protein (extracellular domain of human MCAM fused to human IgG) (human, UniProt P43121 24-559).
T1 construct: also called hMCAM-Fc; MCAMhFc
T1 chain: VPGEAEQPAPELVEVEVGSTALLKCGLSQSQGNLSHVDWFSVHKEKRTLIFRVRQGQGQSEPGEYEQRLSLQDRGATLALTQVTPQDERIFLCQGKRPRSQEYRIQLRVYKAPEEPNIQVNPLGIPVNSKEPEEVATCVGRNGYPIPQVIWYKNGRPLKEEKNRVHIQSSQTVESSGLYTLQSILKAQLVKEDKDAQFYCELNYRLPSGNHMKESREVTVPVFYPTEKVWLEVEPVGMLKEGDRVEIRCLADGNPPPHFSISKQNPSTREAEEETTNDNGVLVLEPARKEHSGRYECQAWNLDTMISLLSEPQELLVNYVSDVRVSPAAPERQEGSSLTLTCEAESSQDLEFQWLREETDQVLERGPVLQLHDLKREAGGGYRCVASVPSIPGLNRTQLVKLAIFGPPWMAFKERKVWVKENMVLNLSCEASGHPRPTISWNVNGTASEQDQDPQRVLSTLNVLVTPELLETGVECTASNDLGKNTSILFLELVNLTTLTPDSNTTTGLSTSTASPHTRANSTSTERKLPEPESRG
Description: summary sentence of Example 3 (ForteBio, MCAMhFc). From the text: (§1) The following protocol was used: ForteBio anti-human IgG Fc biosensors were used to immobilize various MCAMhFc domains including full length MCAMhFc protein on to biosensor surface. […] After loading these samples into a black 96 well plate, the Octet Red was programmed as follows: 60 seconds for baseline #1; 180 seconds for loading various domains; 60 seconds for baseline #2; 180 seconds for association of antibody to domain; and 240 seconds for dissociation of antibody from domain.
(§2) Reagents and Supplies Used: [0358] 1. MCAMhFc final concentration @ 5 ug/ml [0359] […] 3. ForteBio anti-human IgG Fc Capture (AHC) biosensors for kinetics experiments, cat#18-5060 [0361] 4. Block 96 well plate from Greiner Bio-one, cat#655209 [0362] 5. ForteBio Octet Red machine [0363] 6. Fresh tissue culture medium, DMEM with 20% FCS, was used as buffer for dilution
On the technique in general: Biolayer interferometry detects binding as a change in optical thickness at a sensor tip.

Experiment [2] has as its target T2, human MCAM domain 1 hFc construct (human, UniProt P43121 19-129).
T2 construct: One of the 'various MCAMhFc domains' loaded on the ForteBio sensors; also called MCAMhFc domain 1
T2 sequence: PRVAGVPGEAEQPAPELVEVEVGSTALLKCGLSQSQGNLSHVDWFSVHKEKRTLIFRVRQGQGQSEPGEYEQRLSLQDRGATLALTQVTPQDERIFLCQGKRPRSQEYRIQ
Put plainly: ForteBio Octet Red, MCAMhFc domains on anti-human IgG Fc sensors.
Source text: as §1, §2

For experiment [3], the target named is T3, human MCAM domain 2 hFc construct (human, UniProt P43121 139-242).
T3 construct: One of the 'various MCAMhFc domains' loaded on the ForteBio sensors; also called MCAMhFc domain 2
T3 sequence: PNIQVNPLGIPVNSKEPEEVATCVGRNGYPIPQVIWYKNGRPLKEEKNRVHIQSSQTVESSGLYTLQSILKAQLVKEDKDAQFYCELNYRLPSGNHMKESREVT
The experiment is described as above.
Source text: as §1, §2

The target in experiment [4] is T4, human MCAM domains 1 and 2 hFc construct (human, UniProt P43121 19-242).
T4 construct: One of the 'various MCAMhFc domains' loaded on the ForteBio sensors
T4 sequence: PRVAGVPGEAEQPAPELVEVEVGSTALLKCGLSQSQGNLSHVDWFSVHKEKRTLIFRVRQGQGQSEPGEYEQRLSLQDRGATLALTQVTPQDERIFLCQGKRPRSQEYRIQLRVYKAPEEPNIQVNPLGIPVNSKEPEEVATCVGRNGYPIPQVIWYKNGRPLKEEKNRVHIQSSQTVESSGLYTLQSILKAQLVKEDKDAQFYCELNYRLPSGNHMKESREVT
The description is as above.
Source text: as §1, §2

The target in experiment [5] is T5, human MCAM domain 3 hFc construct (human, UniProt P43121 244-321).
T5 construct: One of the 'various MCAMhFc domains' loaded on the ForteBio sensors; also called MCAMhFc domain 3
T5 sequence: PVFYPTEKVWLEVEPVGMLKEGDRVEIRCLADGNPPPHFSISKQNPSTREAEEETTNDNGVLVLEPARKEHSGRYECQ
Description: ForteBio Octet Red, MCAMhFc domains on anti-human IgG Fc sensors, antibody at 5 ug/ml.
Source text: as §1, §2

For experiment [6], the target named is T6, human MCAM expressed on CHO cells (full length human MCAM gene) (human, UniProt P43121 24-646).
T6 construct: also called hMCAM expressing CHO cells; CD146
T6 chain: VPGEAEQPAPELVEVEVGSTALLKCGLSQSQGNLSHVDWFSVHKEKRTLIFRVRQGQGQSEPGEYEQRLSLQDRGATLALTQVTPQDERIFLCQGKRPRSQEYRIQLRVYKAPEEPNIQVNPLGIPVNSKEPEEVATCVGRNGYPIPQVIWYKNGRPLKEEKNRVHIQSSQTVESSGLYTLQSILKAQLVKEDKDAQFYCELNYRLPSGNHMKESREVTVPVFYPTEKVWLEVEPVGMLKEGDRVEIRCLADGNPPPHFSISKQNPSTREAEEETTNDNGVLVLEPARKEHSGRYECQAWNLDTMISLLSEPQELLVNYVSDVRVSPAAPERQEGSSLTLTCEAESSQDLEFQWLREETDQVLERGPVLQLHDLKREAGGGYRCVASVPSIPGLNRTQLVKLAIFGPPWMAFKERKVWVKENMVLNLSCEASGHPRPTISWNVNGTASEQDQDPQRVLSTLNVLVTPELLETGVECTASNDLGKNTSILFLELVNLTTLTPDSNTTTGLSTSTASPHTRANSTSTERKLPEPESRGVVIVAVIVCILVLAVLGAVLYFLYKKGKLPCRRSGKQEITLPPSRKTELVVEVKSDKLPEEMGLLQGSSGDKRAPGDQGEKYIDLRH
Description: flow cytometry: blocking of recombinant human laminin 411 (20 ug/ml) binding to CHO cells expressing human MCAM. As for the experimental part:
The 87 independent mouse fusion clones and 26 independent rat fusion clones described in Example 1 above as being capable of (i) binding to human MCAM, and (ii) blocking the interaction between human MCAM and the α-4 chain of laminin were further characterized as follows. First, IC50 quantitation for the ability of the monoclonal antibody to block the binding of human MCAM to the α-4 chain of laminin was determined as follows. CHO cells expressing human MCAM were incubated with an anti-human MCAM antibody (at various concentrations) for 30 minutes at 4 degrees Celsius. […] Unbound laminin was then washed away, and the laminin bound to the surface of the cells was detected with fluorescently labeled anti-laminin antibodies. After washing, the amount of laminin bound to the surface was detected by flow cytometry, and IC50s were calculated based on the mean fluorescent intensity.
Amino acid and nucleic acid sequences of the heavy and light chains of these antibodies, and their hypervariable regions, are provided in SEQ ID NOs:29-92. […] As such, each of these specific monoclonal antibodies was very capable of binding to human MCAM and inhibiting the interaction of cell-expressed human MCAM with its α-4 laminin binding ligand.
Background: In flow cytometry, cells or beads pass a laser one at a time.

The target of experiment [7] is T7, recombinant hMCAM-His (human, UniProt P43121 24-559).
T7 chain: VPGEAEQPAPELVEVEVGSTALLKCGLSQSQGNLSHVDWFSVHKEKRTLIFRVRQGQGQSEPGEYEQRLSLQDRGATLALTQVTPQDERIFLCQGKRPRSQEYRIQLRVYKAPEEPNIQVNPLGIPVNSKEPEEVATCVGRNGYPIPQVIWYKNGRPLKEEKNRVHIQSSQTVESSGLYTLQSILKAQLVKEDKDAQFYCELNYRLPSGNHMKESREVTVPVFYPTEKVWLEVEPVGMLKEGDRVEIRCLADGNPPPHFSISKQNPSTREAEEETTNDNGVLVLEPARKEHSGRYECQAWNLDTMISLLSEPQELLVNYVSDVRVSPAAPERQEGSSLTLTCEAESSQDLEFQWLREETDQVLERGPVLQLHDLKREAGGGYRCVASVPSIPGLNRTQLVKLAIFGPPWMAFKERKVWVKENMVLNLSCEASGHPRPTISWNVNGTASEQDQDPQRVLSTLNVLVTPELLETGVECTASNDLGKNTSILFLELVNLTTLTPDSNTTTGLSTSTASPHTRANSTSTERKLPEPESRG
Description: competitive ELISA on coated hMCAM-His, competitor biotinylated rodent or chimeric 2120; IC50 relative to rodent 2120. As for the experimental part:
The apparent affinities of the humanized antibodies were compared to the parental rodent or chimeric antibody in a competitive ELISA according to the following protocol: ELISA plates were coated with recombinant hMCAM-His, and blocked with casein buffer to prevent non-specific binding. Biotinylated rodent or chimeric antibody was added at a subsaturating concentration, in the presence or absence of 3× increasing concentrations of unlabeled competitor (humanized antibody, rodent, or chimeric). After washing to remove unbound antibody, streptavidin HRP was added to allow detection of the biotinylated antibody. The ELISA was developed with TMB substrate and the OD450 was measured. The IC50 of the unlabeled competitor was determined using the GraphPad Prism5 software.

Experiment [8] addresses T6, human MCAM expressed on CHO cells (full …). Put plainly: laminin/FACS assay: blocking of recombinant laminin 411 binding to hMCAM expressing CHO cells, relative to rodent 2120, Expt#1. The procedure: (§3) Following incubation for 30-45 minutes, the cells were washed and anti-laminin conjugated to AF650 (NovusBio) was added to detect the bound laminin. The cells were run on a flow cytometer to measure the laminin binding signal.

For experiment [9] the target is unchanged. Description: laminin/FACS assay: blocking of recombinant laminin 411 binding to hMCAM expressing CHO cells, relative to rodent 2120, Expt#2. As for the experimental part: as §3
In experiment [10] the target is T7, recombinant hMCAM-His. Description: ForteBio Octet Red, antibody on anti-human Fc sensors, hMCAMHis analyte, 1:1 fit; affinity relative to rodent 2120, first Forte column. The procedure: The affinities were measured using the ForteBio Octet Red. Anti-human Fc sensors were used to capture the humanized antibodies, and several concentrations of hMCAMHis analyte were used to determine the affinity using a 1:1 fitting model.

B1: mouse anti-human MCAM monoclonal antibody clone 1174.1.3 (antibody, V domains shown)
VH: QIQLVQSGPELKKPGETVKISCKASGYTFTNYGMNWVKQAPGKGLKWMGWINTYTGEPTYADDFKGRFALSLETSASTAYLQINNLKNEDMATYFCARYRYNKYERAMDYWGQGTSVTVSS
VL: DIVLTQSPASLAVSLGQRATISCRASKSVSTSGYSYMYWYQQKPGQPPKLLIYLASNLESGVPARFSGSGSGTDFTLNIHPVEEEDAATYYCQHSRELPFTFGSGTKLEIK
notes: Mouse hybridoma antibody
B1: the binding result in [1] is “binds”; in [2], “no binding (tested: 5 ug/ml)”; in [3], “no binding (tested: 5 ug/ml)”; in [4] it was “no binding (tested: 5 ug/ml)”; in [5], “binds”. Also, in [6], the half-inhibitory concentration (IC50) – broadly, the midpoint of a concentration-inhibition curve – came out at 0.469 µg/mL.

B2: humanized anti-MCAM antibody h2120_VH1 + h2120_VL1 (antibody, V domains shown)
VH: QVTLKESGPVLVKPTETLTLTCTVSGFSLTSNGVSWVRQPPGKALEWIAAISSGGTTYYNSAFKSRLTISRDTSKSQVVLTMTNMDPVDTATYYCARRYGYGWYFDFWGQGTLVTVSS
VL: DIQMTQSPSSLSASVGDRVTITCKASQNIYNSLAWYQQKPGKAPKVLIFNANSLQTGIPSRFSGSGSGTDFTLTISSLQPEDFATYYCQQFYSGYTFGQGTKLEIK
notes: Human IgG1 / human kappa; also called h2120VH1VL1; Standard VH + standard VL
As to B2, the “Fold over rodent (ELISA)” value in experiment [7] worked out at 3.1 fold. The “Fold over rodent (Blocking)” value in experiment [8] stood at 2 fold; in experiment [9], 3.5 fold. In addition, the “Fold over rodent (Forte)” value in experiment [10] is 8.8 fold.

B3: humanized anti-MCAM antibody h2120_VH1 + h2120_VL2 (antibody, V domains shown)
VH: QVTLKESGPVLVKPTETLTLTCTVSGFSLTSNGVSWVRQPPGKALEWIAAISSGGTTYYNSAFKSRLTISRDTSKSQVVLTMTNMDPVDTATYYCARRYGYGWYFDFWGQGTLVTVSS
VL: DIQMTQSPSSLSASVGDRVTITCKASQNIYNSLAWYQQKPGKAPKVLIFNANSLQTGVPSRFSGSGSGTDFTLTISSLQPEDFATYYCQQFYSGYTFGQGTKLEIK
notes: Human IgG1 / human kappa; also called h2120VH1VL2; Standard VH + aggressive VL
Take B3: in [7], the “Fold over rodent (ELISA)” value is 3.1 fold. Also, the entries for the “Fold over rodent (Blocking)” value in [8] and in [9] were 4.6 fold and 12.6 fold, respectively. In experiment [10], the “Fold over rodent (Forte)” value was determined as 10.8 fold.

B4: humanized anti-MCAM antibody h2120_VH4 + h2120_VL3 (antibody, V domains shown)
VH: QVTLKESGPVLVKPTETLTLTCTVSGFSLTSQGVSWVRQPPGKALEWIAAISSGGTTYYNSAFKSRLTISRDTSKSQVVLTMTNMDPVDTATYYCARRYGYGWYFDFWGQGTLVTVSS
VL: DIQMTQSPSSLSASVGDRVTINCKASQNIYNSLAWYQQKPGKAPKVLIFNANSLQTGIPSRFSGSGSGTDFTLTISSLQPEDFATYYCQQFYSGYTFGQGTKLEIK
notes: Human IgG1 / human kappa; also called h2120VH4VL3; N-Q deamidate VH + conservative VL
Consider B4, for which, in [7], the “Fold over rodent (ELISA)” value amounted to 5 fold. The “Fold over rodent (Blocking)” value in experiment [8] was found to be 3.8 fold; in [9] it was 5.6 fold. The “Fold over rodent (Forte)” value in [10] was determined as 17.4 fold.

B5: rat anti-human MCAM monoclonal antibody clone 2107.4.10 (antibody, V domains shown)
VH: QVQLKESGPGLVQSSQTLSLTCTVSGFSLTSNGVSWVRQPPGKGLEWIAAISSGGSTYYNSAFKSRLSISRNTSKSQVLLKMNSLQTEDTGMYFCARHRPFYFDYWGQGVMVTVSS
VL: DIQVTQSPSLLSASVGDRVTLNCKGSQNIYKSLAWFRLKRGEAPKLLIYDANSLQTGIPSRFSGSGSGTDFTLTITSLQPEDVATYFCQQYYSGYTFGAGTKLELK
notes: Rat hybridoma antibody
Regarding B5, the binding result in experiment [2] is on record as “no binding (tested: 5 ug/ml)”. Also, in experiment [6], the IC50 was 0.29 µg/mL.
